Test results published in patent US20190247357A1, “NANOPARTICLE FORMULATIONS AND METHODS OF MAKING AND USING THEREOF” (Abraxis BioScience, LLC, priority 2016, published 2019).

Legend:
ErbB2 [1] = target: ErbB2 (UniProt P04626); test: Phospho(Tyr1248)/Total ErbB2 binding assay, MSD whole cell lysate kit, SK-BR-3 cells treated 2 h
ErbB2 [2] = target: ErbB2 (UniProt P04626); test: Phospho(Tyr1248)/Total ErbB2 binding assay, MSD whole cell lysate kit, BT-474 cells treated 2 h
[3] = test system: A375 human melanoma cells; test: A375 melanoma xenograft model: tumor volume change and survival; details: mice with tumors larger than 2000 mm^3 euthanized
Experimental: A375 human melanoma cells were subcutaneously injected into mice to generate xenograft models. The tumors were allowed to grow to about 600 mm^3 before treatment according to the following protocols. Nine mice were treated for each protocol, except as noted.
Cohort 1—Vehicle control (“Vehicle”). […] The vehicle control was administered to each mouse at a dosage of 120 μL/mouse on the second day of the experiment.
Cohort 4—BEV12 and ABX30 on same day (“BEV12+ABX30—Same Day”).
P-values were determined using an un-paired t-test.
Survival time of the treated mice was also recoded. Mice with tumors larger than 2000 mm^3 were euthanized.

IC50 (ErbB2 [1]) [nM] | IC50 (ErbB2 [2]) [nM] | Substance | Median Survival [3] [days]
0.301 | 0.441 | SM(PEG)6 conjugate of trastuzumab and nab-paclitaxel particles with free mAb (Example 35, paclitaxel:trastuzumab 10:1) (from UniProt P02768 25-609) | 
0.311 |  | Thiolated conjugate of trastuzumab and nab-paclitaxel particles (Example 34, paclitaxel:trastuzumab 31:1) (from UniProt P02768 25-609) | 
0.977 | 0.216 | Thiolated conjugate of trastuzumab and nab-paclitaxel particles (Example 33, paclitaxel:trastuzumab 12:1) (from UniProt P02768 25-609) | 
0.289 | 0.429 | Nanoparticles with embedded trastuzumab, paclitaxel and albumin (Example 12, Batch 4, paclitaxel:trastuzumab 4.5:1) (from UniProt P02768 25-609) | 
0.37 | 0.456 | Nanoparticles with embedded trastuzumab, paclitaxel and albumin (Example 12, Batch 3, paclitaxel:trastuzumab 6.7:1) (from UniProt P02768 25-609) | 
 |  | bevacizumab: antiangiogenic antibody that targets vascular endothelial growth factor A (VEGF-A) | 38
0.361 | 0.349 | Nanoparticles with embedded trastuzumab, paclitaxel and albumin (Example 12, Batch 2, paclitaxel:trastuzumab 5.9:1) (from UniProt P02768 25-609) | 
0.409 | 0.524 | Nanoparticles with embedded trastuzumab, paclitaxel and albumin, with free mAb (Example 20, paclitaxel:trastuzumab 10:1) (from UniProt P02768 25-609) | 
0.59 | 0.702 | Click conjugate of trastuzumab and nab-paclitaxel particles (Example 26, paclitaxel:trastuzumab 51:1) (from UniProt P02768 25-609) | 
0.557 | 0.291 | SM(PEG)6 conjugate of trastuzumab and isolated nab-paclitaxel particles (Example 23, paclitaxel:trastuzumab 92.5:1) (from UniProt P02768 25-609) | 
0.357 | 0.35 | Nanoparticles with embedded trastuzumab, paclitaxel and albumin (Example 12, Batch 1, paclitaxel:trastuzumab 5.6:1) (from UniProt P02768 25-609) | 
